The values that follow come from US20260167959A1, “APTAZYME-BASED REGULATABLE GENE EXPRESSION SYSTEMS” (REJUVENATE BIO INC, priority 2022, published 2026).

Where a chain is given by its changes, count along the chain named.

To fix the notation:
B1: RA316 (nucleic acid)
DNA: GCGCGTCCTGGATGGAATACCAGCATCGTCTTGATGCCCTTGGAAGTCCTCGCGGAAACGCGTACATCCAGCTGACGAGTCCCAAATAGGACAAAACGCGC
modifications: expressed or natural sequence
B2: RA317 (nucleic acid)
DNA: GCGCGTCCTGGATTCGCGGAAACGCGTACATCCAGCTGACGAGTCCCAAATAGCCGGAATACCAGCATCGTCTTGATGCCCTTGGAAGTCCGGGACGAAACGCGC
modifications: expressed or natural sequence
B3: RA318 (nucleic acid)
DNA: GCGGAATACCAGCATCGTCTTGATGCCCTTGGAAGTCCGCGCGTCCTGGATTCGCGGAAACGCGTACATCCAGCTGACGAGTCCCAAATAGGACGAAACGCGC
modifications: expressed or natural sequence
B4: RA302 (nucleic acid)
DNA: GCGCGTCCTGGATTCGCGGAAACGCGTACATCCAGCTGACGAGAATACCAGCATCGTCTTGATGCCCTTGGAAGTCTAGTCCCAAATAGGACGAAACGCGC
modifications: expressed or natural sequence
B5: RA314 (nucleic acid)
DNA: GCGCGTCCTGGATTCGCGGAAACGCGTACATCCAGCTGACGAGTCCCAAATAGGGAATACCAGCATCGTCTTGATGCCCTTGGAAGTCCGACGAAACGCGC
modifications: expressed or natural sequence
B6: RA308 (nucleic acid)
DNA: GCGCGTCCTGGATTCGCGGAAACGCGTACATCCAGCAGTGATACCAGCATCGTCTTGATGCCCTTGGCAGCACTTGACGAGTCCCAAATAGGACGAAACGCGC
modifications: expressed or natural sequence
B7: RA311 (nucleic acid)
DNA: GCGCGTCCTGGATTCGCGGAAACGCGTCGAGAATACCAGCATCGTCTTGATGCCCTTGGAAGTCTCGACATCCAGCTGACGAGTCCCAAATAGGACGAAACGCGC
modifications: expressed or natural sequence
B8: RA307 (nucleic acid)
DNA: GCGCGTCCTGGATTCGCGGAAACGCGTACATCCAGCTGACGAGTGAGAATACCAGCATCGTCTTGATGCCCTTGGAAGTCTCCCCAAATAGGACGAAACGCGC
modifications: expressed or natural sequence
B9: RA312 (nucleic acid)
DNA: GCGCGTCCTGGATTCGCGGAAACGCGTACATCCAGCTGACGAGGAATACCAGCATCGTCTTGATGCCCTTGGAAGTCCGTCCCAAATAGGACGAAACGCGC
modifications: expressed or natural sequence
B10: RA304 (nucleic acid)
DNA: GCGCGAGAATACCAGCATCGTCTTGATGCCCTTGGAAGTCTCGCGTCCTGGATTCGCGGAAACGCGTACATCCAGCTGACGAGTCCCAAATAGGACGAAACGCGC
modifications: expressed or natural sequence
B11: RA313 (nucleic acid)
DNA: GCGCGTCCTGGATTCGCGGAAACGCGTACATCCAGCTGACGAGTCCCAACGGAATACCAGCATCGTCTTGATGCCCTTGGAAGTCCGATAGGACGAAACGCGC
modifications: expressed or natural sequence
B12: RA319 (nucleic acid)
DNA: GCGCGTCCTGGATTCGCGGAAACGCGTACAGAGAATACCAGCATCGTCTTGATGCCCTTGGAAGTCTCTCCAGCTGACGAGTCCCAAATAGGACGAAACGCGC
modifications: expressed or natural sequence
B13: RA303 (nucleic acid)
DNA: GCGCCGGAATACCAGCATCGTCTTGATGCCCTTGGAAGTCCGGTCCTGGATTCGCGGAAACGCGTACATCCAGCTGACGAGTCCCAAATAGGACGAAACGCGC
modifications: expressed or natural sequence
B14: RA306 (nucleic acid)
DNA: GCGCGGGAATACCAGCATCGTCTTGATGCCCTTGGAAGTCCTCCTGGATTCGCGGAAACGCGTACATCCAGCTGACGAGTCCCAAATAGGACAAAACGCGC
modifications: expressed or natural sequence
B15: RA309 (nucleic acid)
DNA: B14 DNA with G6A, C41T, A93G
modifications: expressed or natural sequence
B16: RA310 (nucleic acid)
DNA: GCGCGTCCTGGATTCGCGGAAACGCGTACATCCAGCTGACGAGTCCCAAATAGAATACCAGCATCGTCTTGATGCCCTTGGAAGTCTAGGACGAAACGCGC
modifications: expressed or natural sequence
B17: RA315 (nucleic acid)
DNA: GCGCGTCCTGGATTCGCGGAAACGCGTACATCCAGCTGACGAGTCCCAAATAGGACGAACGAGAATACCAGCATCGTCTTGATGCCCTTGGAAGTCTCGACGCGC
modifications: expressed or natural sequence
B18: RA305 (nucleic acid)
DNA: GCGCGTCCTGGATTCGCGGAAACGCGTACATCAGTGATACCAGCATCGTCTTGATGCCCTTGGCAGCACTCAGCTGACGAGTCCCAAATAGGACGAAACGCGC
modifications: expressed or natural sequence
B19: RA301 (nucleic acid)
DNA: GCGAGTGATACCAGCATCGTCTTGATGCCCTTGGCAGCACTCGTCCTGGATTCGCGGAAACGCGTACATCCAGCTGACGAGTCCCAAATAGGACGAAACGCGC
modifications: expressed or natural sequence
B20: RA298 (nucleic acid)
DNA: GCCGGAATACCAGCATCGTCTTGATGCCCTTGGAAGTCCGGCGTCCTGGATTCGCGGAAACGCGTACATCCAGCTGACGAGTCCCAAATAGGACGAAACGCGC
modifications: expressed or natural sequence
B21: RA300 (nucleic acid)
DNA: GCGCGTCCTGGCGAGAATACCAGCATCGTCTTGATGCCCTTGGAAGTCTCGATTCGCGGAAACGCGTACATCCAGCTGACGAGTCCCAAATAGGACGAAACGCGC
modifications: expressed or natural sequence
B22: RA030 (nucleic acid)
DNA: GCGCGTCCTGGATTCGCGGAAACGCGTACATCCAGCTGACGAGTCCCAAATAGGACGAAACGAGAATACCAGCATCGTCTTGATGCCCTTGGAAGTCTCGCGC
modifications: expressed or natural sequence
B23: RA029 (nucleic acid)
DNA: GCGCGTCCTGGATTCGCGGAAACGGGAATACCAGCATCGTCTTGATGCCCTTGGAAGTCCCGTACATCCAGCTGACGAGTCCCAAATAGGACGAAACGCGC
modifications: expressed or natural sequence
B24: RA297 (nucleic acid)
DNA: B14 DNA with A93G
modifications: expressed or natural sequence
B25: RA299 (nucleic acid)
DNA: GCGCGTAGTGATACCAGCATCGTCTTGATGCCCTTGGCAGCACTCCTGGATTCGCGGAAACGCGTACATCCAGCTGACGAGTCCCAAATAGGACGAAACGCGC
modifications: expressed or natural sequence
B26: RA031 (nucleic acid)
DNA: GCGCGTCCGAGAATACCAGCATCGTCTTGATGCCCTTGGAAGTCTCTGGATTCGCGGAAACGCGTACATCCAGCTGACGAGTCCCAAATAGGACGAAACGCGC
modifications: expressed or natural sequence

One data set concerns Renilla luciferase RNA. The experiment in a line: Barcoded aptazyme variant library screen: un-cleaved Renilla luciferase RNA by barcode read counts, HEK293-T cells. Type of data set: cell-based. The note with it: un-cleaved Renilla luciferase RNA by barcode read counts; with 1 mM theophylline (ON) over without theophylline (OFF); HEK293-T cells; triplicate. An excerpt:
Based on the findings from Example 1, an aptazyme variant library was generated from the T3H48 ribozyme with one of seven variant theophylline aptamers inserted sequentially after each nucleotide of the DNA sequence encoding the T3H48 ribozyme sequence. […] The seven variant theophylline aptamers vary in their communication channels, which are the ribonucleotides of the aptamer that attach to the ribozyme sequence (see, Table 2).
The library was barcoded with unique sequences of nine nucleotides flanked by forward and reverse primer amplification sequences.
The aptazyme library was then PCR amplified and cloned into the psiCHECK™-2 dual luciferase vector in the 3′ UTR of the Renilla luciferase gene. […] The next day, the cells were isolated followed by DNA and RNA extraction using standard methods. The purified RNA was then converted to cDNA and the barcoded portion of the aptazyme library was PCR amplified. Similarly, the DNA was PCR amplified and all the samples were sequenced. All experimental conditions (with theophylline and without theophylline) were performed in triplicate. The read count for each barcode was determined with a custom build code and the data was normalized to identify the un-cleaved fractions of the Renilla luciferase RNA from cells that were cultured in the presence or absence of theophylline for each aptazyme, which was used to obtain the fold-change between ON- and OFF-states (FIG. 2).
Turning to B1, the “Fold change in RNA expression between the ON state and the OFF state” value (from here on “Fold change”) is given as 0.9. Take B2: the “Fold change” value amounted to 0.9. With B3, the “Fold change” value came out at 0.9. With B4, the “Fold change” value is 1.0.

Regarding B5, the “Fold change” value amounted to 1.0. The same measure, in the same setting: next, B6: 1.0; B7: 1.0. Turning to B8, the “Fold change” value was 1.0. Same read-out and setting: next, B9: 1.0; B10: 1.0. For the molecule B11, the “Fold change” value is 1.0.

For the molecule B12, the “Fold change” value is reported as 0.9. Same read-out and setting: next, B13: 1.0; B14: 1.0. The same measure, in the same setting: next, B15: 1.0. Same read-out and setting: next, B16: 1.0; B17: 1.0; B18: 1.0.

Staying with this data set, now noted: un-cleaved Renilla luciferase RNA, HEK293-T cells cultured with 1 mM theophylline (ON) over without theophylline (OFF); barcode read counts, triplicate.
Consider B19, for which the “Fold change” value stood at 1.0 fold. Consider B20, for which the “Fold change” value came to 1.0 fold. Consider B21, for which the “Fold change” value was 1.0 fold. The same measure, in the same setting: next, B22: 2.3 fold. B23: the “Fold change” value was found to be 2.3 fold.

B24: the “Fold change” value turned out to be 1.0 fold. With B25, the “Fold change” value came to 1.0 fold. Same read-out and setting: as for B26, the figure is 2.3 fold.
